According to paper doi:10.1101/598128 (bioRxiv, 2019):

T1: 6xHis-Hop1 (budding yeast, UniProt P20050 1-605)
T1 sequence (looked up): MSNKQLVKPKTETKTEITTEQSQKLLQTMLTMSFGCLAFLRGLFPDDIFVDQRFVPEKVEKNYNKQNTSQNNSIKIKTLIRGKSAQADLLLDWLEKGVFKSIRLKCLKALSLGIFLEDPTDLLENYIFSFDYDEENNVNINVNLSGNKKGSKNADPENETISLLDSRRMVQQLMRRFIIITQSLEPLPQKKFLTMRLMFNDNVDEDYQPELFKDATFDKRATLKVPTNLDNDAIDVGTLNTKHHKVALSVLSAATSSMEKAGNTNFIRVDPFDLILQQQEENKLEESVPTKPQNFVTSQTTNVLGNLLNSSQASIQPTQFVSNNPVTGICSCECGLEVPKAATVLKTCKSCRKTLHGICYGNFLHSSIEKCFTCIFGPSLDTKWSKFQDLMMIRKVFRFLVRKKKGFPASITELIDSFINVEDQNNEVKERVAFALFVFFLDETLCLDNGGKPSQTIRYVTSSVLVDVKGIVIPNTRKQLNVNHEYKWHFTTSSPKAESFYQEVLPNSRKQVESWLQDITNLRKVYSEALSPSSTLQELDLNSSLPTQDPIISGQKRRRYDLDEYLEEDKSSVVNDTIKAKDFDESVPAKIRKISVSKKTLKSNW

T2: His-Orc1 (subunit of the purified His-ORC complex) (budding yeast, UniProt P54784 1-913)
T2 sequence: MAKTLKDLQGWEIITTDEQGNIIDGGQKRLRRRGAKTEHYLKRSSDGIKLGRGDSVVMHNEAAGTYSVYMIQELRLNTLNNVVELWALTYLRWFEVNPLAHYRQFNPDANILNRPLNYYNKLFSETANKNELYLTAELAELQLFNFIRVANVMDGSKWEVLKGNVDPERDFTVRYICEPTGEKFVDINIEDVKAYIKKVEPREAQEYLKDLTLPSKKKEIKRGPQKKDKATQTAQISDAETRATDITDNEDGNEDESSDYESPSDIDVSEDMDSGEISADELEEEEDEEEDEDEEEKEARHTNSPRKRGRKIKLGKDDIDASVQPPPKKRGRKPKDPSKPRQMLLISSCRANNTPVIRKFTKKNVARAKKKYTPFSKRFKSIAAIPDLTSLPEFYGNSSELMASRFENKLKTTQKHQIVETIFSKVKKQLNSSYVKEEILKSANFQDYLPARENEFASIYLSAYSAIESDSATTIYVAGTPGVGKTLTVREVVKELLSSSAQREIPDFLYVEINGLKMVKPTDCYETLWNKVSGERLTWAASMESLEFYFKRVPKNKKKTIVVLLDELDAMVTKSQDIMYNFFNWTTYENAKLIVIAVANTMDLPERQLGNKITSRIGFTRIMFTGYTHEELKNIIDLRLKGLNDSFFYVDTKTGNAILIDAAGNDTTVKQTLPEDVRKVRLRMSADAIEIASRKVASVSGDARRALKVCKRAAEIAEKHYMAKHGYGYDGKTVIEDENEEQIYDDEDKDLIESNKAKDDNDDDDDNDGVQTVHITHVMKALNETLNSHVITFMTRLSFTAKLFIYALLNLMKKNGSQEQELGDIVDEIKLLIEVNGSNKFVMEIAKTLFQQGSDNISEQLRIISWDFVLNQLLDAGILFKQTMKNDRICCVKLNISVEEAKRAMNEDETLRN

B1: Orc5 (subunit of the purified His-ORC complex) (natural protein, budding yeast)
chain: MNVTTPEVAFREYQTNCLASYISADPDITPSNLILQGYSGTGKTYTLKKYFNANPNLHAVWLEPVELVSWKPLLQAIARTVQYKLKTLYPNIPTTDYDPLQVEEPFLLVKTLHNIFVQYESLQEKTCLFLILDGFDSLQDLDAALFNKYIKLNELLPKDSKINIKFIYTMLETSFLQRYSTHCIPTVMFPRYNVDEVSTILVMSRCGELMEDSCLRKRIIEEQITDCTDDQFQNVAANFIHLIVQAFHSYTGNDIFALNDLIDFKWPKYVSRITKENIFEPLALYKSAIKLFLSTDDNLSENGQGESAITTNRDDLENSQTYDLSIISKYLLIASYICSYLEPRYDASIFSRKTRIIQGRAAYGRRKKKEVNPRYLQPSLFAIERLLAIFQAIFPIQGKAESGSLSALREESLMKANIEVFQNLSELHTLKLIATTMNKNIDYLSPKVRWKVNVPWEIIKEISESVHFNISDYFSDIHE
B2: His-MBP-Pch2 (natural protein, budding yeast, UniProt P38126 1-564, looked up)
chain: MSYIVDLQVRGSSLRVIKCMFREDEQISSLHSGSDSKQNSNKKLGEFLNLLKAVVKRKLESFPKDRLKTSIITGQELMREGQGSIEIKDPPTEAQQHLIRSLAKVLLHQFSSINGKVNTVNEGQDNLFLSLFVKKISIEQQSTSHVSIKLNFHEKINLGQHIDSILDSEETNESDTYHMGSVDEFIIYPFCCLEEQDELKNGSILSTEFDKIDLELDEDDGFEGETLNNCINSVGNFDIPLSKQTLNLVNISYLPGTTFEGQWESLYFGNNIKERLYSYATISLKIARFKQTGDSNQEDITTLITNNKLLLVHGPPGTGKTTLCKALCQKLSVRREFSDGSDTIDTNYKGIIIELSCARIFSKWFGESSKNISIVFKDIEELLKVNEGRGIFICLLIDEVEAIASSRTNLSSRNESTDGIRVVNTLLTQLDRLKKYHNFLALATSNLLDSLDDAFVDRADGVFYVGNPTAEGILHILKVCIEEMITSGIILFHARSTGVKFFNKYQDILRKIAIKCSTVDISGRTIRKLPLMCLSEYFRTFPVDDDEFVLALAMSARKLSAARK

Experiments:
His-MBP-Pch2 = biological target: B2; assay: cross-linking
SEC = biological target: the molecule itself; assay: SEC
6xHis-Hop1 = biological target: T1, 6xHis-Hop1; assay: pull-down
[1] = biological target: T2, His-Orc1 (subunit of the purified …); assay: cross-linking

| binding result (His-MBP-Pch2) | binding result (6xHis-Hop1) | binding result [1] | Binder | stoichiometry N (SEC) |
| --- | --- | --- | --- | --- |
| binds |  |  | B1 |  |
|  | binds | binds | B2 | 6 |
